The target in this test is recombinant CgDM9CP-6 (DM9 domain containing protein 6 of Crassostrea gigas), His tag (Crassostrea gigas). Put plainly: BLI.

Experimental findings from paper PMC12379375 are described below.

What is called Kd is the constant that tells how readily two partners part at equilibrium.

“recombinant Cg14-3-3ε (14-3-3 epsilon of Crassostrea gigas), GST tag (natural protein)”: the Kd is 3.81 µM.
